Source: patent publication US12517112B2, “Immune cell organoid co-cultures” (Koninklijke Nederlandse Akademie van Wetenschappen, priority 2017, dated 2026)

Assays:
CD274 (PD-L1) = test: PD-L1 expression in colon organoid lines upon IFN-γ stimulation (qPCR and flow cytometry); assay type: cell-based; conditions: organoids treated with 20 ng/mL recombinant human IFN-γ
Text: (§1) Cells were sorted as single cells into 96-well plates using a BD FACS Aria (BD Biosciences) cytometer. For flow cytometry, the following antibodies were used (all anti-human): CD8-PE (clone RPA-T8), CD45-PerCP-Cy5.5 (2D1), CD274 (PD-L1)-APC (MIH1) (all BD Biosciences), CD279 (PD-1)-PE (EH12.2H7, Biolegend), HLA-A2^− PE (BB7.2, Santa Cruz).

HLA-A2 = HLA-A2 expression on CRC organoid lines with and without IFN-γ stimulation (flow cytometry); assay type: cell-based; conditions: HLA-A2 negative CRC organoids, 20 ng/ml recombinant human IFN-γ
Protocol: FIG. 10. HLA-A2 expression on clonally expanded HLA-A2^+ and HLA-A2^− CRC organoid lines. […] Flow cytometry analysis of HLA-A2 expression on normal (left panel), HLA-A2^+ CRC (middle panel) and HLA-A2^− CRC (right panel) lines with and without stimulation with 20 ng/ml recombinant human IFN-γ.
as §1

B1: IFN-γ: recombinant human interferon gamma used to stimulate organoids (20 ng/mL) (protein, UniProt P01579 24-161, looked up)
Interferon gamma: QDPYVKEAENLKKYFNAGHSDVADNGTLFLGILKNWKEESDRKIMQSQIVSFYFKLFKNFKDDQSIQKSVETIKEDMNVKFFNSNKKKRDDFEKLTNYSVTDLNVQRKAIHELIQVMAELSPAAKTGKRKRSQMLFRG
- PD-L1 expression on transcript and protein level (CD274 (PD-L1)): dramatically upregulated
- HLA-A2 re-expression (HLA-A2): did not trigger HLA-A2 re-expression
